Measurements reported in the supplement of paper PMC10126150.
± gives the standard deviation of the averaged measurements.

Tested on: ATP
Experiment: switch fluorescence ratio, 500 uM ATP over buffer (Cy3 cluster intensity, sum of 5 cycles each) (fold (ratio)); higher = stronger signal-on switching upon ATP binding; sequences stand for … in TCGTCGGCAGCGTCAGATGTGTATAAGAGACAGTTTTTTTTTTTTTTTTTTTTTTTTT…TC
Conditions: aptamer strand: ATP DNA aptamer (quencher-CACCTGGGGGAGTATTGCGGAGGAAGG + anchor), 100 nM annealed; ATP concentration: 500 uM
How it was run: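 Clusters carrying Cy3-labelled switching strands on a modified Illumina MiSeq flow-cell were annealed to 100 nM quencher-labelled ATP aptamer and imaged in selection buffer. They were imaged again after 15 min with 500 uM ATP at 22 °C, over five buffer/ATP cycles with NaOH stripping and re-annealing in between. For each cluster, the fluorescence ratio is the summed Cy3 intensity of the target cycles divided by that of the buffer cycles, averaged per switch-domain sequence. Clusters outside 100-1000 RFU were left out.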
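Further: ATP exposure 15 min at 22 °C before imaging.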

Sequence | switch fluorescence ratio
AAAAGGAAAG | 0.957 ± 0.037
TTTCATGGTG | 1.0484 ± 0.00021
GAGGTAGTCT | 1.07 ± 0.14
GTGTCCGTGG | 1.003 ± 0.0037
CGGGGCAAAA | 1.04 ± 0.027
ATAGGGGCGC | 1 ± 0.047
TTTTTGAAGT | 1.01 ± 0.027
GCTCTCGGTA | 1.03 ± 0.039
TTTTACCGAG | 1.047 ± 0.0032
GTTCCTTGGG | 1.01 ± 0.016
GCTGTCGTTA | 1.015 ± 0.01
AAGGGGTTTC | 0.9746 ± 0.0067
GGCCAGTTTG | 0.986 ± 0.018
ATTATAGGTT | 0.996 ± 0.0091
TTCGGAGGGC | 0.996 ± 0.031
GCCACACAAT | 1.022 ± 0.0014
TTGGTGGATC | 1.03 ± 0.03
TTTTGGTTGG | 0.971 ± 0.028
ACTAATGGGC | 1.03 ± 0.026
TGCTGTTCTG | 1.032 ± 0.0019
TATGGCATAC | 1.51 ± 0.02
TTAGAGTCTG | 1.005 ± 0.01
TTTTCCGGGG | 1.04 ± 0.045
TAAGAAAGGA | 0.997 ± 0.048
AAGGCTTCGG | 0.998 ± 0.032

Sequence | switch fluorescence ratio
ATATTAAAAC | 0.988 ± 0.034
TCTCCGGGGA | 1.2077 ± 0.0006
ATGAGTCTAA | 0.992 ± 0.011
TTAAGAGGTC | 0.979 ± 0.018
TATTAATTTT | 1.02 ± 0.015
TAAAACCCTT | 1.04 ± 0.076
ATTGTTGTAG | 0.985 ± 0.00069
TGCGCCGTTT | 1.01 ± 0.017
GGCTGTTAAG | 0.983 ± 0.0028
TACGGGGAT | 1.84 ± 1.2
ACTTGTTTGG | 1.01 ± 0.023
TGCGTTGCTA | 0.996 ± 0.038
GGGAGTTGG | 0.992 ± 0.017
TGATTGATAT | 1.01 ± 0.012
GCAGGAGTGG | 0.9929 ± 0.0088
TGGGGTATAC | 1.02 ± 0.038
AGCGGAAGGC | 1.04 ± 0.024
AGTTTGGGT | 0.985 ± 0.032
GTTGGATTAA | 1 ± 0.046
CTAAGGGGGG | 1.04 ± 0.033
CATTGTGGGC | 0.9621 ± 0.0034
CCGTTTGGTC | 1.02 ± 0.019
AGCGGGTAGG | 1.02 ± 0.013
CGTACTTGGG | 0.982 ± 0.011
CCACTTGGTC | 1.06 ± 0.064

Sequence | switch fluorescence ratio
CATTGGTTTG | 1.01 ± 0.048
TATATGCGCG | 0.994 ± 0.041
GGGGTTTACT | 1.01 ± 0.021
CATGTATTTT | 0.991 ± 0.041
ATAATATTTG | 0.985 ± 0.015
AGAGGGATAG | 1.19 ± 0.37
CAGGGGGTGT | 1.03 ± 0.032
TATGTCGGCG | 0.991 ± 0.055
AAATTAGAGG | 1 ± 0.026
TTTTACCGTA | 1.04 ± 0.034
ATGGTATCT | 1.08 ± 0.1
GTGGGAAGTT | 0.9926 ± 0.0071
TCTTATAATT | 1.01 ± 0.011
ACTGTTTTTA | 0.9849 ± 0.004
TTGTTAATTT | 1.02 ± 0.05
ATAGGGCTTG | 0.9746 ± 0.005
TTTGGCTGAG | 1.004 ± 0.009
GCTTCAGGG | 1 ± 0.019
TTAGTGGTAC | 1.15 ± 0.044
GATTTGGTGT | 1.03 ± 0.057
AATGGTCGGC | 0.996 ± 0.011
CAGGGGGCCA | 0.984 ± 0.033
TTGTGTACCG | 0.96 ± 0.048
CGTGTGTGCA | 1.004 ± 0.0024
CAATGTGGAG | 0.992 ± 0.055

Sequence | switch fluorescence ratio
GGATTAATCA | 1.01 ± 0.035
AATTAAGGCA | 0.9756 ± 0.0065
ATCTTTATAT | 0.994 ± 0.019
GGGGACCTAG | 1.01 ± 0.015
TTGAGGAAGG | 0.9835 ± 0.0018
GGTTATAGTT | 1.01 ± 0.011
TGTTGTATAA | 1.2 ± 0.26
TCTGTATCCG | 0.984 ± 0.015
TGAATAGAAC | 1.01 ± 0.015
ACGGGGGTGT | 0.984 ± 0.024
CGTAAAAGAT | 1.04 ± 0.06
TTGGTGCCCG | 1.01 ± 0.037
GGGTTCATTT | 1.019 ± 0.0015
GGATTATTTG | 0.97982 ± 7.7e-05
TGGAATGGTG | 1.05 ± 0.015
TAAGTGGGGG | 0.979 ± 0.03
GAAACAGGAT | 1.02 ± 0.058
GATATGCTGT | 0.985 ± 0.017
CTGCGTCCAT | 1.068 ± 0.01
AGGGTGTGCT | 1.015 ± 0.0042
TGAATGAGAT | 0.967 ± 0.014
GTTTGAATTT | 0.989 ± 0.027
CGCTACGGAG | 1.02 ± 0.029
CCTTGGGGAA | 0.98 ± 0.013
CCGGGGTCGT | 1.02 ± 0.012

Sequence | switch fluorescence ratio
TGGGGAACGC | 1.01 ± 0.034
GAACATTTCG | 1 ± 0.021
CGGGGGGGGG | 1.02 ± 0.054
TATTTCATTT | 1.06 ± 0.072
AAATAGGTG | 1.12 ± 0.058
TTGGACTCGG | 0.997 ± 0.034
TACTTACTAG | 1.099 ± 0.01
ATGACAGCGG | 1.01 ± 0.11
AAGGGGGGTC | 0.991 ± 0.042
TGAAGAGGGG | 0.994 ± 0.012
TGGTTCTGTT | 0.975 ± 0.018
TTTGGCTTTA | 0.977 ± 0.017
CGGATCATCA | 1 ± 0.021
TGTGTCGGTC | 1.07 ± 0.085
TGCCATCCGA | 1.09 ± 0.054
GTACGAGGGA | 0.997 ± 0.026
TTTGATACTC | 1.15 ± 0.091
GCACTTGTTT | 1 ± 0.028
TGAATTTATA | 1.024 ± 0.0093
GGGGGGTCAG | 1.01 ± 0.025
GTGGAAAAGG | 0.966 ± 0.046
ATAGTAAAAC | 1.05 ± 0.02
GGGTATGCGA | 0.984 ± 0.015
GGGTTAATTC | 1.03 ± 0.088
TTTACGGCTA | 1.06 ± 0.014

Sequence | switch fluorescence ratio
AGACGGAATT | 1.049 ± 0.0063
AGGGCAATGG | 1.29 ± 0.38
TGGGGTATCT | 1 ± 0.019
AAAAGAAAGG | 0.985 ± 0.012
CATGTGTTGC | 0.987 ± 0.012
TCTGATAGTT | 0.998 ± 0.021
TAAAGAAATG | 0.99 ± 0.033
TTTATAAATT | 0.972 ± 0.032
TCTGACAATC | 1.91 ± 0.24
TGAATAAATT | 1.02 ± 0.015
TAGCCAAGGG | 0.994 ± 0.053
ATTGGCGTTT | 0.996 ± 0.049
AATTAACGGC | 1.07 ± 0.083
AGAGGAGGGT | 1.01 ± 0.017
GGGCTTCCGT | 1.089 ± 0.0068
CGCTATTTTA | 1.04 ± 0.039
GACATAGTTT | 1.021 ± 0.01
AGATCGTGAG | 0.97 ± 0.038
AACCTCACGC | 1.73 ± 0.2
GGGGGTATGT | 0.997 ± 0.02
TAATTAGGGT | 1 ± 0.025
CGGGGTATGG | 1 ± 0.011
ATCGTCGGTA | 1.03 ± 0.017
CAGGGAGGGG | 0.995 ± 0.032
TGGTGCTGTT | 0.985 ± 0.03

Sequence | switch fluorescence ratio
TATGTTATTC | 1.01 ± 0.045
GAAACTTGGT | 1.004 ± 0.0065
AAGTGGGGG | 0.992 ± 0.016
TGCGATGCGG | 0.979 ± 0.037
AACAGATCTG | 1.02 ± 0.014
TTTGGGGATG | 1 ± 0.033
CGGATAGAAT | 0.984 ± 0.029
TAGTTATGGG | 0.998 ± 0.044
CTTAGTTTCG | 1.035 ± 0.0071
TTAGATAGGT | 1.02 ± 0.062
TCAGGCATTG | 0.979 ± 0.018
CTGGGGTGGC | 1.03 ± 0.046
TGGTTTACTA | 1.009 ± 0.0096
TAGTTATGAG | 1.12 ± 0.19
AGATTATGCA | 1.01 ± 0.048
GGCCCTTCGG | 0.9987 ± 0.0091
ACAGACCTAA | 1.14 ± 0.013
GAGGGTGCAT | 0.987 ± 0.043
CGTTGGTACG | 1 ± 0.022
TTTGCTGGTT | 1.02 ± 0.071
AGGCTAAAGG | 1 ± 0.026
GCGGTACTCT | 2.27 ± 0.41
GCGAGGCCAA | 1.28 ± 0.054
TTTTATATGC | 1.19 ± 0.27
AAGTTGAAGG | 1 ± 0.013

Sequence | switch fluorescence ratio
TCATGGGGGG | 1.007 ± 0.01
CTTGAGGGGA | 0.983 ± 0.032
AACTACAGGC | 1.18 ± 0.11
GCTAGTGGTG | 1.04 ± 0.018
TTAGTAGGGT | 0.983 ± 0.04
AACGATATTC | 1.07 ± 0.03
TTTAGGTGTT | 1.05 ± 0.074
CTAGGTGACG | 1.004 ± 0.0075
GCGTAGGGCC | 1.03 ± 0.027
TCGTGGATGT | 1 ± 0.028
GGGTATTACT | 1.03 ± 0.017
TTGTCCAGGA | 0.977 ± 0.048
TGAGTTGTTT | 0.985 ± 0.013
GAGGCAGAAA | 1.09 ± 0.044
AATATTCATT | 0.985 ± 0.069
GGAGTGCCAG | 1 ± 0.027
AAGTTTGGTG | 0.986 ± 0.042
TAGTGAACTT | 1.01 ± 0.0054
TGGCGAGTCC | 0.973 ± 0.015
CATTATGCTT | 0.9864 ± 0.0014
TTGGATCTTA | 0.972 ± 0.02
CAAGGATGTG | 0.965 ± 0.041
AAATTAGTGT | 0.968 ± 0.018
TGGTGCAATC | 2.36 ± 0.86
GGGGCATTTG | 0.9834 ± 0.0011
